# Laboratory results published in patent CN107674122A (TIANJIN TIMMUNE BIOTECH INC, dated 2018).
# Assays:
# [1] = biological target: T1, 人血清白蛋白 (human serum albumin) (human, UniProt P02768 25-609); experiment: phage ELISA, HSA coated, A650
# T1 construct: also called HSA
# [2] = biological target: IgG (coated control antigen); experiment: phage ELISA, IgG coated, A650
# [3] = biological target: T1, 人血清白蛋白 (human serum albumin); experiment: ELISA, HSA coated, A650
# [4] = biological target: T2, 牛血清白蛋白 (bovine serum albumin) (bovine, UniProt P02769 25-607); experiment: ELISA, antigen coated, purified HF11-FC, A650
# T2 construct: also called BSA
# T2 sequence (P02769 25-607 limits assumed): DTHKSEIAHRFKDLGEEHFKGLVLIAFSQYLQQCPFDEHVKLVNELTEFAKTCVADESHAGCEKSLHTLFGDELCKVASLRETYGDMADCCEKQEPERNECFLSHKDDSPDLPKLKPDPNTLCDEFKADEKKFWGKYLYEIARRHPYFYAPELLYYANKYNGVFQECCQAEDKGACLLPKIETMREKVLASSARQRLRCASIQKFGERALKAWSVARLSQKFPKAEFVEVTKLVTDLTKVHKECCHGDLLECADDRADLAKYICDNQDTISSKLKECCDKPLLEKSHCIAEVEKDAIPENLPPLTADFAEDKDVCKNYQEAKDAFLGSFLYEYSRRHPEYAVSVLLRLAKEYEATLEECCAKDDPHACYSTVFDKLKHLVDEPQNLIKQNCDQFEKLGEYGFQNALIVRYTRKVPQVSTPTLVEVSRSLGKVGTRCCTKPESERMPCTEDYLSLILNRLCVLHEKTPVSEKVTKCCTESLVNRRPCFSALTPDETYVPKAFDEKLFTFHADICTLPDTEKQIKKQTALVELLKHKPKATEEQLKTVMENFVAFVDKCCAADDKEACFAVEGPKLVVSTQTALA
# T1 sequence (P02768 25-609 limits assumed): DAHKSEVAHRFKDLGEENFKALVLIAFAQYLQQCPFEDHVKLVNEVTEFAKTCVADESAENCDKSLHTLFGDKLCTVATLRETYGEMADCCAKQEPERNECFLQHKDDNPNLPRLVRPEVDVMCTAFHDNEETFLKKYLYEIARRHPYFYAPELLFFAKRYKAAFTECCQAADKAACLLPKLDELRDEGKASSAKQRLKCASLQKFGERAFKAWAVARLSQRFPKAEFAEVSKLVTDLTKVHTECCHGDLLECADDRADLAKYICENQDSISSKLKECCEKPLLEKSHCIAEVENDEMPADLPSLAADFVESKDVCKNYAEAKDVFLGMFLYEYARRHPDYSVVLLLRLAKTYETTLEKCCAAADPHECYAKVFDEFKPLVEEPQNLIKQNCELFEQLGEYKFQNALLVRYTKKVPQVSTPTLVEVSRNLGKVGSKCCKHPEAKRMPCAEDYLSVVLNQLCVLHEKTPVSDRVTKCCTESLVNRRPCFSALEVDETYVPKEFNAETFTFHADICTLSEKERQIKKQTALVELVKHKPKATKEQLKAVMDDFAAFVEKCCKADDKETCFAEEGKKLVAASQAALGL
binder,measurement,setting,value
"HE9 单域抗体 (phage-displayed clone, culture supernatant) (VHH, Human heavy-chain single domain antibody on a DP47 framework; Tested in ELISA as phage in culture supernatant; not shown: Myc and VSV-G tags and phage GIII protein of display vector pBG3) VHH: QVQLLESGGGLVQPGGSLRLSCAASGFMVTSEIMGWVRQAPGKGLEWVSTIVANNGSTYYADSVKGRFTISRDNSKNTLYLQMNSLRAEDTAVYYCASPPRRTGVDGTESMHFWGQGTLVTVSS",binding result,[1],binds
same,A650,[2],≤ 0.3 A650
"HB5 单域抗体 (phage-displayed clone, culture supernatant) (VHH, Human heavy-chain single domain antibody on a DP47 framework; Tested in ELISA as phage in culture supernatant, detected with an HRP-labelled anti-phage antibody; not shown: Myc and VSV-G tags and phage GIII protein of display vector pBG3) VHH: QVQLLESGGGLVQPGGSLRLSCAASGVKAINHTMGWVRQAPGKGLEWVSAIRTPDGSTYYADSVKGRFTISRDNSKNTLYLQMNSLRAEDTAVYYCASVGDNAGSSSPPFASWGQGTLVTVSS",binding result,[1],binds
same,A650,[2],≤ 0.3 A650
"HF11 单域抗体 (phage-displayed clone, culture supernatant) (VHH, Human heavy-chain single domain antibody on a DP47 framework; Tested in ELISA as phage in culture supernatant; not shown: Myc and VSV-G tags and phage GIII protein of display vector pBG3) VHH: QVQLLESGGGLVQPGGSLRLSCAASGVKISYESMAWVRQAPGKGLEWVSSILMQNGSTYYADSVKGRFTISRDNSKNTLYLQMNSLRAEDTAVYYCATTRVRRPANMKYWGQGTLVTVSS",A650,[2],≤ 0.3 A650
"融合蛋白HF11-FC (expressed from pcDNA3.1 in 293F cells) (Fc fusion, The secreted protein was purified on Protein A; not shown: human Fc; residues encoded by the BamHI site between the single domain antibody and Fc; no) QVQLLESGGGLVQPGGSLRLSCAASGVKISYESMAWVRQAPGKGLEWVSSILMQNGSTYYADSVKGRFTISRDNSKNTLYLQMNSLRAEDTAVYYCATTRVRRPANMKYWGQGTLVTVSS",binding result,[3],binds
same,binding result,[4],no binding
